This note sets out measurements from publication PMC8175363.

The assay concerns the target unspliced Pyrococcus horikoshii PolII intein fusion protein NIHPho (N-extein M-H-A-A-K-R-N, 166-residue intein, C-extein C-D-G-D-E-D-His6) (Pyrococcus horikoshii) (UniProt O57861). Description: crystal structure; sitting drop vapour diffusion; protein about 3 mg/ml in 20 mM Tris pH 8.0, 100 mM NaCl; reservoir 0.1 M Tris HCl pH 8.5, 1.8 M ammonium sulfate, 0.1 M sodium chloride, 1% glycerol; data at 100 K; phased by SAD with the Se-Met derivative.

By stoichiometry N is commonly meant a count of units in the complex or per binding partner. For “unspliced Pyrococcus horikoshii PolII intein fusion protein NIHPho (N-extein M-H-A-A-K-R-N, 166-residue intein, C-extein C-D-G-D-E-D-His6) (from UniProt O57861 945-1123) (domain or fragment)”, the stoichiometry N is 2.
